Test results taken from patent US20170334973A1.

Tests used:
[1] = target: EBOV GPddmuc (Ebola virus (EBOV)), Q05320; experiment: ELISA; conditions: remark: other sources report otherwise
[2] = target: SUDV GPddmuc (Sudan virus (SUDV)), Q66814; experiment: ELISA; conditions: remark: other sources report otherwise

Row | Binder | EC50 [1] [pM] | EC50 [2] [pM]
1 | FVM04 (antibody, V domains shown) VH: EVQLVQSGGGLVQPGGSMRLSCEASGLSLSDYFMHWVRQAQGKGLEWIGLIQTKAFTYKTEYPAAVKGRFTISRDDSKNTLYLQMSSLKPEDTALYYCIAVTPDFYYWGQGVLVTVSS VL: DVVMTQSPSFLSASVGDRVTITCRASQDITINLNWFQHKPGKAPKRLIYVASRLERGVPSRFSGSGSGTEFTLTISSLQPEDFATYYCQQYNNYPLTFGPGTKLDIKRTV | 149 | 164
2 | FVM09 (antibody, V domains shown) VH: EVQLVQSGAEVKRPGESLTISCKTSGYSFTDSWVAWVRQMPGKGLEWLGSIYPGDSETKYNPSFQGHVTISADKSVTTTYLKWSSLKASDTATYYCVKGSETWGQGVLVTVSS VL: QLVLTQPASLSASPGASASLTCTFSGGINVAGYNILWYQQKAGSPPRYLLRYKSDSTKDQGSGVPSRFSGSKDASANTGILRISGLQSEDEADYYCAIGHSSGWIFGGGTRLTVL | 7070 | 7730
3 | FVM17 (antibody, V domains shown) VH: EVQLVQSGAEVKRPGESLTISCKTSGYSFTDSWISWVRQMPGKGLEWMGSIYPGDSDARYNPSFQGHVTISADKSISTTYLKWSSLKASDTATYYCVKGSETWGQGVLVTVSS VL: QAVVTQPASLSASPGTSASLTCTFSGGINVAGYNILWYQQKPGSPPRFLLRYKSDSDNVQGSGVPSHFSGSKDASANTGILRISGLQSEDEADYYCAIGHSSGWIFGGGTRLTVL | 96 | 113
4 | FVM20 (antibody, V domains shown) VH: EVQLVESGAEVKRPGESLTISCKTSGYSFTGSWISWVRQMPGKGLEWLGSIYPGDSETKYNPSFQGHVTISADKSVTTTYLKWSSLKASDTATYYCVKGSETWGQGVLVTVSS VL: NFMLTQSASLSASPGASASLTCTFSGGINVAGYHIFWYQQNPGSPPRYLLRYKSDSEKDQGSGVPSRFSGSKDASANTGILRISGLQSEDEADYYCAIGHSSGWIFGGGTRLTVL | 81 | 119
